Earlier results on one substance are cited in article PMC8797470, “Disruption of the pentraxin 3/CD44 interaction as an efficient therapy for triple‐negative breast cancers” (Clinical and Translational Medicine, 2022).

This data set concerns the target PTX3 (Homo sapiens) (UniProt P26022).

TSG-6 link module, sequence (P98066 36-129): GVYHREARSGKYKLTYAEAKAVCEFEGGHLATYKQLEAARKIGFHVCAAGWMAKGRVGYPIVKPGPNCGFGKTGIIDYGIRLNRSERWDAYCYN
PTX3 (Homo sapiens), sequence (P26022 18-381): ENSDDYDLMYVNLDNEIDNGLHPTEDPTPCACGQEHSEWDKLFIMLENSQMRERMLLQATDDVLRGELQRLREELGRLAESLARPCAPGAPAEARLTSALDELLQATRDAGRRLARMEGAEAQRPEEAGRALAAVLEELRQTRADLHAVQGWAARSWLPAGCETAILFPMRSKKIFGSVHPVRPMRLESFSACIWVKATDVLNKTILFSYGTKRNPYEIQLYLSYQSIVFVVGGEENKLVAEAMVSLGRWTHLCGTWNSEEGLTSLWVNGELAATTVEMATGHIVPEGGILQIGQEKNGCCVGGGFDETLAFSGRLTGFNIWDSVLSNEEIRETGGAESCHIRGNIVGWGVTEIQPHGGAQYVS

In general, Kd refers to the equilibrium constant for the complex coming apart. For TSG-6 link module (from UniProt P98066), the Kd is 481 nM.
